Biological target: Fc gamma receptor (Fc(γ)R) on dendritic cells
Test: cell-based or functional assay

Substance: monoclonal antibody 3G4 (ATCC PTA 4545)
- DC uptake of apoptotic tumor cells: 300%
